Positions count from the first letter of the chain named. Where “and” joins values, the source holds several entries; their conditions need not be identical. Identical values can stand only once.
B1: Trastuzumab HCDR3 variant ARYGYGYYYYFDY (Fab, V domains shown)
VH: EVQLVESGGGLVQPGGSLRLSCAASGFNIKDTYIHWVRQAPGKGLEWVARIYPTNGYTRYADSVKGRFTISADTSKNTAYLQMNSLRAEDTAVYYCARYGYGYYYYFDYWGQGTLVTVSS
VL: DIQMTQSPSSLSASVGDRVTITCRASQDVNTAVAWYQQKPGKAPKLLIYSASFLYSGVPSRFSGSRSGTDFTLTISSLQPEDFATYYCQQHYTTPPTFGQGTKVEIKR
B2: Trastuzumab HCDR3 variant ARSYAFLYGRMDY (Fab, V domains shown)
VH: B1 VH with Y99S, G100Y, Y101A, G102F, Y103L, Y105G, Y106R, F107M
VL: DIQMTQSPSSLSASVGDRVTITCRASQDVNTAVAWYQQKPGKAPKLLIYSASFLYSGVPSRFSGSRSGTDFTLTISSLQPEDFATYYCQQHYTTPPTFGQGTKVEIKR
B3: Trastuzumab HCDR3 variant APWWSGWYYFFDT (Fab, V domains shown)
VH: B1 VH with R98P, Y99W, G100W, Y101S, Y103W, Y106F, Y109T
VL: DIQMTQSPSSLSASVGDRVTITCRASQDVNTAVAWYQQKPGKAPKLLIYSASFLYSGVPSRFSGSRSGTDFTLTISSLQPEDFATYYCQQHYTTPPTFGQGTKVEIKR
B4: Trastuzumab HCDR3 variant ARSYAYLYGSWDY (Fab, V domains shown)
VH: B1 VH with Y99S, G100Y, Y101A, G102Y, Y103L, Y105G, Y106S, F107W
VL: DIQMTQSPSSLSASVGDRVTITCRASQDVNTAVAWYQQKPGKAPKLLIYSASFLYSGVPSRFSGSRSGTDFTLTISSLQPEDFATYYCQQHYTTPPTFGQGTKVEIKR
B5: Trastuzumab HCDR3 variant ARDGGMYRYGLYG (Fab, V domains shown)
VH: B1 VH with Y99D, Y101G, G102M, Y104R, Y106G, F107L, D108Y, Y109G
VL: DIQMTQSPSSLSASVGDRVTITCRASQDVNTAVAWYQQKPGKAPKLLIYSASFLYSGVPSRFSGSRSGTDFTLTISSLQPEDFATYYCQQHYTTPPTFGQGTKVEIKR
B6: Trastuzumab HCDR3 variant ARDGYPFYSGMDY (Fab, V domains shown)
VH: B1 VH with Y99D, G102P, Y103F, Y105S, Y106G, F107M
VL: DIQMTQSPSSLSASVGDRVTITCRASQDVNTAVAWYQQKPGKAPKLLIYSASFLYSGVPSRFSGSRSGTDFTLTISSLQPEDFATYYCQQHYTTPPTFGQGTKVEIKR
B7: Trastuzumab HCDR3 variant ARPSYDVGGDMLF (Fab, V domains shown)
VH: B1 VH with Y99P, G100S, G102D, Y103V, Y104G, Y105G, Y106D, F107M, D108L, Y109F
VL: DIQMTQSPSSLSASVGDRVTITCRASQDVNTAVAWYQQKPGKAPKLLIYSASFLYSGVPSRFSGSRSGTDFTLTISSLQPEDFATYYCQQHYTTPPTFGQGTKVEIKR
B8: Trastuzumab HCDR3 variant AIWSMYDVGYYPF (Fab, V domains shown)
VH: EVQLVESGGGLVQPGGSLRLSCAASGFNIKDTYIHWVRQAPGKGLEWVARIYPTNGYTRYADSVKGRFTISADTSKNTAYLQMNSLRAEDTAVYYCAIWSMYDVGYYPFWGQGTLVTVSS
VL: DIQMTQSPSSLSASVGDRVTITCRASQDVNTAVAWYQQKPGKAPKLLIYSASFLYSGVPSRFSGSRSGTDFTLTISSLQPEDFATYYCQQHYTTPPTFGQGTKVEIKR
B9: Trastuzumab HCDR3 variant ARNYYYGAYYFDY (Fab, V domains shown)
VH: B1 VH with Y99N, G100Y, G102Y, Y103G, Y104A
VL: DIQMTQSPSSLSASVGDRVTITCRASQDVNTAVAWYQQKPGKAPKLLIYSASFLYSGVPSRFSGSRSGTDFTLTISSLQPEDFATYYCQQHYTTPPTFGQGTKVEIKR
B10: Trastuzumab HCDR3 variant ANVGSSLGIAALD (Fab, V domains shown)
VH: EVQLVESGGGLVQPGGSLRLSCAASGFNIKDTYIHWVRQAPGKGLEWVARIYPTNGYTRYADSVKGRFTISADTSKNTAYLQMNSLRAEDTAVYYCANVGSSLGIAALDWGQGTLVTVSS
VL: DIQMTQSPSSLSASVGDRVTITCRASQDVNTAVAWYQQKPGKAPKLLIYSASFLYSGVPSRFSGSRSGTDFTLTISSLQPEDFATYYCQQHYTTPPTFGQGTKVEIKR
B11: Trastuzumab HCDR3 variant ARGYYQDSQSWGY (Fab, V domains shown)
VH: B1 VH with Y99G, G100Y, G102Q, Y103D, Y104S, Y105Q, Y106S, F107W, D108G
VL: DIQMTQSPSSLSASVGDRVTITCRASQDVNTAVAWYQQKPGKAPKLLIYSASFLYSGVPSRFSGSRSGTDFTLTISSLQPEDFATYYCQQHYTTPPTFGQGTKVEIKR
B12: Trastuzumab HCDR3 variant ARDGYPQYGGYGY (Fab, V domains shown)
VH: B1 VH with Y99D, G102P, Y103Q, Y105G, Y106G, F107Y, D108G
VL: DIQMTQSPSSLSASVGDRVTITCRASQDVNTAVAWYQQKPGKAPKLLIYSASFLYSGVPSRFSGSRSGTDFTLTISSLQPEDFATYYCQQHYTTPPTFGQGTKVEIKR
B13: Trastuzumab HCDR3 variant ARAGGTSISLGHG (Fab, V domains shown)
VH: B1 VH with Y99A, Y101G, G102T, Y103S, Y104I, Y105S, Y106L, F107G, D108H, Y109G
VL: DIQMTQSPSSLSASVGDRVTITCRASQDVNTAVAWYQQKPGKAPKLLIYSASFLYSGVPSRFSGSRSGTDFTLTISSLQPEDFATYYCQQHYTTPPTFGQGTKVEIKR
B14: Trastuzumab HCDR3 variant ARTTSSIPSSFDY (Fab, V domains shown)
VH: B1 VH with Y99T, G100T, Y101S, G102S, Y103I, Y104P, Y105S, Y106S
VL: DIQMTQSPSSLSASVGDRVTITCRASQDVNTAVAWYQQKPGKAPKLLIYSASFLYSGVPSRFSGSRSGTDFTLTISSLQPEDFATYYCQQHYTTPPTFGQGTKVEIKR
B15: Trastuzumab HCDR3 variant AKFERGYYSFDFG (Fab, V domains shown)
VH: B1 VH with R98K, Y99F, G100E, Y101R, Y105S, Y106F, F107D, D108F, Y109G
VL: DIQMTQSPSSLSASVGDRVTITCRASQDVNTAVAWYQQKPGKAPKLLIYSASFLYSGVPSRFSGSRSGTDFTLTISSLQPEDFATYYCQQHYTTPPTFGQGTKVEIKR
B16: Trastuzumab HCDR3 variant ARFGPAYFYGFYY (Fab, V domains shown)
VH: B1 VH with Y99F, Y101P, G102A, Y104F, Y106G, D108Y
VL: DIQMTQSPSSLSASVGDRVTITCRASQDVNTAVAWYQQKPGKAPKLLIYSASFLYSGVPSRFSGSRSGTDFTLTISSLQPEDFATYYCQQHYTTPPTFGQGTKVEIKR
B17: Trastuzumab HCDR3 variant AKFHWGEDWLSDN (Fab, V domains shown)
VH: B1 VH with R98K, Y99F, G100H, Y101W, Y103E, Y104D, Y105W, Y106L, F107S, Y109N
VL: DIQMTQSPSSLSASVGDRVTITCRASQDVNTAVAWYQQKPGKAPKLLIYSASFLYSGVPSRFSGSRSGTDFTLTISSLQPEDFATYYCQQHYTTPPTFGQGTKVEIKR
B18: Trastuzumab HCDR3 variant APWGTYRYGYFDH (Fab, V domains shown)
VH: B1 VH with R98P, Y99W, Y101T, G102Y, Y103R, Y105G, Y109H
VL: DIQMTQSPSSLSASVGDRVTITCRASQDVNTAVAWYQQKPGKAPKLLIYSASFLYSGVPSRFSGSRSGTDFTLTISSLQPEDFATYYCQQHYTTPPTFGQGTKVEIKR
B19: Trastuzumab HCDR3 variant ARSYFRFTGDFFY (Fab, V domains shown)
VH: B1 VH with Y99S, G100Y, Y101F, G102R, Y103F, Y104T, Y105G, Y106D, D108F
VL: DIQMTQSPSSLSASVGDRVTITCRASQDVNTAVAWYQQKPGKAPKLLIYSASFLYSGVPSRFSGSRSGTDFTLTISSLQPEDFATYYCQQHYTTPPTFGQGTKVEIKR
B20: Trastuzumab HCDR3 variant AQYGRGGYWYFDY (Fab, V domains shown)
VH: B1 VH with R98Q, Y101R, Y103G, Y105W
VL: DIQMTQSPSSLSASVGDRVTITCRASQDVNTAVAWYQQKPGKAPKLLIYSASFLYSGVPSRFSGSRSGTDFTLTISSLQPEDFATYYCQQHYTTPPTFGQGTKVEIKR
B21: Trastuzumab HCDR3 variant ARGHYSLGYSFDF (Fab, V domains shown)
VH: B1 VH with Y99G, G100H, G102S, Y103L, Y104G, Y106S, Y109F
VL: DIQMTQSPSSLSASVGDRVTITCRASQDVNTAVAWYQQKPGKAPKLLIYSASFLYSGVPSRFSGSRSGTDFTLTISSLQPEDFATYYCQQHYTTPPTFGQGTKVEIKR
B22: Trastuzumab HCDR3 variant ARDVYVGSPVFDY (Fab, V domains shown)
VH: B1 VH with Y99D, G100V, G102V, Y103G, Y104S, Y105P, Y106V
VL: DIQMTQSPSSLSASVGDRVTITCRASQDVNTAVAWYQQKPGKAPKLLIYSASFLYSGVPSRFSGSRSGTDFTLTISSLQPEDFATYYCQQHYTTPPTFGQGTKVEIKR
B23: Trastuzumab HCDR3 variant ARGGYGYYTWFDY (Fab, V domains shown)
VH: B1 VH with Y99G, Y105T, Y106W
VL: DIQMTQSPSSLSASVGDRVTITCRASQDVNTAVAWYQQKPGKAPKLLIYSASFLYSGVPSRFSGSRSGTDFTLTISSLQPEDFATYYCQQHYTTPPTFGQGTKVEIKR
B24: Trastuzumab HCDR3 variant AGSVAEGWYHYRD (Fab, V domains shown)
VH: EVQLVESGGGLVQPGGSLRLSCAASGFNIKDTYIHWVRQAPGKGLEWVARIYPTNGYTRYADSVKGRFTISADTSKNTAYLQMNSLRAEDTAVYYCAGSVAEGWYHYRDWGQGTLVTVSS
VL: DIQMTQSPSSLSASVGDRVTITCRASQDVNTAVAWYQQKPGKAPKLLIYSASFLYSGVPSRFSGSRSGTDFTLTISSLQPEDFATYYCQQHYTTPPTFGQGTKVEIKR
B25: Trastuzumab HCDR3 variant ARFSGYGAYDYAY (Fab, V domains shown)
VH: B24 VH with G98R, S99F, V100S, A101G, E102Y, W104A, H106D, R108A, D109Y
VL: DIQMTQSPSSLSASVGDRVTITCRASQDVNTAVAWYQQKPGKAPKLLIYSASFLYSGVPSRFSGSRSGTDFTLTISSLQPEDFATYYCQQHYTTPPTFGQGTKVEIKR
B26: Trastuzumab HCDR3 variant AKYTRGFSYGFGY (Fab, V domains shown)
VH: B1 VH with R98K, G100T, Y101R, Y103F, Y104S, Y106G, D108G
VL: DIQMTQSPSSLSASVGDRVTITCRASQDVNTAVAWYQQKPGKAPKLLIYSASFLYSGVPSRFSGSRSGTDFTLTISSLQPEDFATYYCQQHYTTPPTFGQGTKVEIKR
B27: Trastuzumab HCDR3 variant ARSGYPGYGSFAY (Fab, V domains shown)
VH: B1 VH with Y99S, G102P, Y103G, Y105G, Y106S, D108A
VL: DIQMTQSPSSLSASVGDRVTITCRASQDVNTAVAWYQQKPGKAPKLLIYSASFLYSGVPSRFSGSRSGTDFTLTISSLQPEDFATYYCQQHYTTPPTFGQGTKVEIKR
B28: Trastuzumab HCDR3 variant ARHYDYGRYYMDV (Fab, V domains shown)
VH: B1 VH with Y99H, G100Y, Y101D, G102Y, Y103G, Y104R, F107M, Y109V
VL: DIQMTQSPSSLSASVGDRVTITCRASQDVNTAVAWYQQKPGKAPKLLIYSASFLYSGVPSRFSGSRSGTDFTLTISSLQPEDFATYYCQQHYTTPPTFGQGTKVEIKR
B29: Trastuzumab HCDR3 variant AGSSASGWYHYTT (Fab, V domains shown)
VH: B24 VH with V100S, E102S, R108T, D109T
VL: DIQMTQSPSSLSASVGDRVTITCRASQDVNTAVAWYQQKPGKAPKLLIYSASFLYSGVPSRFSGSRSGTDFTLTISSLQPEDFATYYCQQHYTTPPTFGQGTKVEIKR
B30: Trastuzumab HCDR3 variant ARDSPYYGSLYLY (Fab, V domains shown)
VH: B8 VH with I98R, W99D, M101P, D103Y, V104G, G105S, Y106L, P108L, F109Y
VL: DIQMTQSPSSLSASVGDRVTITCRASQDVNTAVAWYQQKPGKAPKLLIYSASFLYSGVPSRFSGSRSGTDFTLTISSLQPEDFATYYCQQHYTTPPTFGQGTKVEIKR
B31: Trastuzumab HCDR3 variant AQNWDRGSYFYTY (Fab, V domains shown)
VH: B24 VH with G98Q, S99N, V100W, A101D, E102R, W104S, H106F, R108T, D109Y
VL: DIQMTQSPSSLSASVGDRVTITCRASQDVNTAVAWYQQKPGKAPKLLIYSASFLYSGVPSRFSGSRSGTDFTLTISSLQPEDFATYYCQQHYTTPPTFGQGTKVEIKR
B32: Trastuzumab HCDR3 variant ARFGGAGGYYFDY (Fab, V domains shown)
VH: B1 VH with Y99F, Y101G, G102A, Y103G, Y104G
VL: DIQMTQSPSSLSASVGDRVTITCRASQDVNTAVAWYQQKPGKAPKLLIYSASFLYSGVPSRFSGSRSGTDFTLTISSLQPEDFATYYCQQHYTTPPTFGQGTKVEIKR
B33: Trastuzumab HCDR3 variant ARTVVGWYGRFDY (Fab, V domains shown)
VH: B1 VH with Y99T, G100V, Y101V, Y103W, Y105G, Y106R
VL: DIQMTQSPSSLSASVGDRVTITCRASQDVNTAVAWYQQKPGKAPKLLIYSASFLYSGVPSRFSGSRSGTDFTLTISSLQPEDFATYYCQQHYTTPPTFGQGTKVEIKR
B34: Trastuzumab HCDR3 variant AGYEGYGLYPFAY (Fab, V domains shown)
VH: B1 VH with R98G, G100E, Y101G, G102Y, Y103G, Y104L, Y106P, D108A
VL: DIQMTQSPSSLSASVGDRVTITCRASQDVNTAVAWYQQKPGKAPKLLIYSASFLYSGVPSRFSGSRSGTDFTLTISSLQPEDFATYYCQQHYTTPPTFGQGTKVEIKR
B35: Trastuzumab HCDR3 variant ARNSGTGIWAFAY (Fab, V domains shown)
VH: B1 VH with Y99N, G100S, Y101G, G102T, Y103G, Y104I, Y105W, Y106A, D108A
VL: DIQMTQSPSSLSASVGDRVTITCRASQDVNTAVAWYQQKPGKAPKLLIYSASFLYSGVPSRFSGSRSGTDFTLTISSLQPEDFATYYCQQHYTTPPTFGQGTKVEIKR
B36: Trastuzumab HCDR3 variant TRNGPLYWHWDL (Fab, V domains shown)
VH: EVQLVESGGGLVQPGGSLRLSCAASGFNIKDTYIHWVRQAPGKGLEWVARIYPTNGYTRYADSVKGRFTISADTSKNTAYLQMNSLRAEDTAVYYCTRNGPLYWHWDLWGQGTLVTVSS
VL: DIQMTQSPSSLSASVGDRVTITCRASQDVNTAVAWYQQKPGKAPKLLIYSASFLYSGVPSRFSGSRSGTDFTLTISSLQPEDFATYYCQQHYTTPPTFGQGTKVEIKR
B37: Trastuzumab HCDR3 variant VRYYRGYYYFDY (Fab, V domains shown)
VH: B36 VH with T97V, N99Y, G100Y, P101R, L102G, W104Y, H105Y, W106F, L108Y
VL: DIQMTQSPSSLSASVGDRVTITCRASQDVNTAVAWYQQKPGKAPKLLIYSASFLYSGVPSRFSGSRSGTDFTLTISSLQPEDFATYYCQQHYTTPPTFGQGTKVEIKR
B38: Trastuzumab HCDR3 variant TRYYDGYYAMDY (Fab, V domains shown)
VH: B36 VH with N99Y, G100Y, P101D, L102G, W104Y, H105A, W106M, L108Y
VL: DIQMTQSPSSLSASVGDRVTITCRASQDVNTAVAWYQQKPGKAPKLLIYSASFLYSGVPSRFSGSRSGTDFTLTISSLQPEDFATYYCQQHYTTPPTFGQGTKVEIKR
B39: Trastuzumab HCDR3 variant … (Fab, V domains shown)
VH: B36 VH with T97A, N99Y, G100Y, P101D, L102Y, Y103G, W104Y, H105T, W106F, L108Y
VL: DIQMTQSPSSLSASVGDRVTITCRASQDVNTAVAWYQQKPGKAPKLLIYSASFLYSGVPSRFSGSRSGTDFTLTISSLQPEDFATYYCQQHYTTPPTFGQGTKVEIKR
B40: Trastuzumab HCDR3 variant VKHGIDYYWYGD (Fab, V domains shown)
VH: B36 VH with T97V, R98K, N99H, P101I, L102D, W104Y, H105W, W106Y, D107G, L108D
VL: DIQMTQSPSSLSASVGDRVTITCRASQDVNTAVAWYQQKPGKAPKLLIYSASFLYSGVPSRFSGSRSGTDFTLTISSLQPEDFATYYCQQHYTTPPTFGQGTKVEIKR
B41: Trastuzumab HCDR3 variant TRTRSGAYFFDY (Fab, V domains shown)
VH: B36 VH with N99T, G100R, P101S, L102G, Y103A, W104Y, H105F, W106F, L108Y
VL: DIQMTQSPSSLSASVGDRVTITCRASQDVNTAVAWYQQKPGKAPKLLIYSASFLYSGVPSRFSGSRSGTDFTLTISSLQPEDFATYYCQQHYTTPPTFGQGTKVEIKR
B42: Trastuzumab HCDR3 variant TRYFYDFPYMDY (Fab, V domains shown)
VH: B36 VH with N99Y, G100F, P101Y, L102D, Y103F, W104P, H105Y, W106M, L108Y
VL: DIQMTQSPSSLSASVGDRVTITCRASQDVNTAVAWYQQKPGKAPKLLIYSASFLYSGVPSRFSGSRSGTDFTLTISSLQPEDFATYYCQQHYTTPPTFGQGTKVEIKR
B43: Trastuzumab HCDR3 variant TRTTLGFYAMDY (Fab, V domains shown)
VH: B36 VH with N99T, G100T, P101L, L102G, Y103F, W104Y, H105A, W106M, L108Y
VL: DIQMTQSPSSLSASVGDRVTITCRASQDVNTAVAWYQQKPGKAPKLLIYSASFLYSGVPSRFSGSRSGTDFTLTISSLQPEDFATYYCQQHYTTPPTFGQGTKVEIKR

These binders were tested against human epidermal growth factor receptor 2 (HER2) extracellular domain (human, UniProt P04626 23-629) (assay: SPR).

| Binder | Kd | log(KD (M)) |
| --- | --- | --- |
| B1 | 39.1 nM | -7.41 log(M) |
| B2 | 189 nM and 188 nM | -6.72 log(M) |
| B3 | 33 nM | -7.48 log(M) |
| B4 | 102 nM | -6.99 log(M) |
| B5 | 231 nM | -6.64 log(M) |
| B6 | 154 nM | -6.81 log(M) |
| B7 | 83.3 nM and 83.2 nM | -7.08 log(M) |
| B8 | 71.8 nM | -7.14 log(M) |
| B9 | 45.5 nM | -7.34 log(M) |
| B10 | 36.7 nM | -7.44 log(M) |
| B11 | 166 nM | -6.78 log(M) |
| B12 | 127 nM | -6.9 log(M) |
| B13 | 67 nM | -7.17 log(M) |
| B14 | 149 nM | -6.83 log(M) |
| B15 | 38.3 nM | -7.42 log(M) |
| B16 | 50.9 nM | -7.29 log(M) |
| B17 | 59.1 nM | -7.23 log(M) |
| B18 | 67.6 nM | -7.17 log(M) |
| B19 | 135 nM | -6.87 log(M) |
| B20 | 188 nM | -6.72 log(M) |
| B21 | 256 nM | -6.59 log(M) |
| B22 | 278 nM | -6.56 log(M) |

| Binder | Kd | log(KD (M)) |
| --- | --- | --- |
| B23 | 42.1 nM | -7.38 log(M) |
| B24 | 60.3 nM | -7.22 log(M) |
| B25 | 125 nM | -6.9 log(M) |
| B26 | 37.8 nM | -7.42 log(M) |
| B27 | 60.7 nM | -7.22 log(M) |
| B28 | 30.9 nM | -7.51 log(M) |
| B29 | 42.3 nM and 42.2 nM | -7.37 log(M) |
| B30 | 205 nM | -6.69 log(M) |
| B31 | 43.1 nM and 43 nM | -7.37 log(M) |
| B32 | 35 nM | -7.46 log(M) |
| B33 | 63.6 nM | -7.2 log(M) |
| B34 | 128 nM | -6.89 log(M) |
| B35 | 65 nM | -7.19 log(M) |
| B36 | 234 nM | -6.63 log(M) |
| B37 | 96.4 nM | -7.02 log(M) |
| B38 | 33.1 nM | -7.48 log(M) |
| B39 | 61.2 nM | -7.21 log(M) |
| B40 | 60.1 nM | -7.22 log(M) |
| B41 | 43.4 nM | -7.36 log(M) |
| B42 | 56.8 nM | -7.25 log(M) |
| B43 | 32.3 nM | -7.49 log(M) |

— patent US20250218531A1 (ABSCI, published 2025)
